Assay [1] deals with Human FcγRI, recombinantly expressed extracellular domain (human) (UniProt P12314). The assay can be described thus: BIAcore 3000, IgG immobilized, FcγR extracellular domain injected, equilibrium fit to a 1:1 binding isotherm; 16C4, parent Fc (no Fc substitution).
Assay [2] addresses Mouse FcγRIIB, recombinantly expressed extracellular domain (mouse) (UniProt P08101). The assay can be described thus: BIAcore 3000, IgG immobilized, FcγR extracellular domain injected, equilibrium fit to a 1:1 binding isotherm.
Assay [3] concerns the target Mouse FcγRIII, recombinantly expressed extracellular domain (mouse) (UniProt P08508). The description is as above.
The target in assay [4] is Mouse FcγRIV, recombinantly expressed extracellular domain (mouse). The assay is described as above.
Chain of Mouse FcγRIV, recombinantly expressed extracellular domain (mouse) (A0A0B4 entry or part of it limits assumed): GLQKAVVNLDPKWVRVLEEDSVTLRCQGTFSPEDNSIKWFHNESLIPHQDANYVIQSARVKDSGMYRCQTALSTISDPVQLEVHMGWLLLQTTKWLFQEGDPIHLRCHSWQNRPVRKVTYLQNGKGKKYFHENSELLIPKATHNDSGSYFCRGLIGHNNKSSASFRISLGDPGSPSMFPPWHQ
Assay [5] has as its target Human FcγRIIIA (V158), recombinantly expressed extracellular domain (human) (UniProt P08637). Described as above.
Assay [6] concerns the target Human FcγRIIB, recombinantly expressed extracellular domain (human) (UniProt P31994). The assay is described as above.
Assay [7] deals with Human FcγRIIA, recombinantly expressed extracellular domain (human) (UniProt P12318). Described as above.
Chain of Human FcγRIIA, recombinantly expressed extracellular domain (human) (P12318 34-217): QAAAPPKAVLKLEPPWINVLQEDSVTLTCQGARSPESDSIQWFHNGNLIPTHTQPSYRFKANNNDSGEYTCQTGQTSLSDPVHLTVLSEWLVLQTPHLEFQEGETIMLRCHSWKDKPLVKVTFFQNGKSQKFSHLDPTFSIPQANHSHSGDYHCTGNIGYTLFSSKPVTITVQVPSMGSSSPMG
The target of assay [8] is Human FcγRI, recombinantly expressed extracellular domain (human) (UniProt P12314). The assay can be described thus: BIAcore 3000, IgG immobilized, FcγR extracellular domain injected, equilibrium fit to a 1:1 binding isotherm; Fc variant 16C4-235Y.
For assay [9] the target is unchanged. Put plainly: BIAcore 3000, IgG immobilized, FcγR extracellular domain injected, equilibrium fit to a 1:1 binding isotherm; Fc variant 16C4-235F.

Chain of Mouse FcγRIIB, recombinantly expressed extracellular domain (mouse) (P08101 30-210): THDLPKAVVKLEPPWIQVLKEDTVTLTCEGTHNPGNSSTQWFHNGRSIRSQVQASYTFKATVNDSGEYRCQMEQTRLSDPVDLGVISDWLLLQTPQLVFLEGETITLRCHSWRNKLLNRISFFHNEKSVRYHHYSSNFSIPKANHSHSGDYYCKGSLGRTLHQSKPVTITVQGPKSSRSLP
Chain of Human FcγRI, recombinantly expressed extracellular domain (human) (P12314 16-292): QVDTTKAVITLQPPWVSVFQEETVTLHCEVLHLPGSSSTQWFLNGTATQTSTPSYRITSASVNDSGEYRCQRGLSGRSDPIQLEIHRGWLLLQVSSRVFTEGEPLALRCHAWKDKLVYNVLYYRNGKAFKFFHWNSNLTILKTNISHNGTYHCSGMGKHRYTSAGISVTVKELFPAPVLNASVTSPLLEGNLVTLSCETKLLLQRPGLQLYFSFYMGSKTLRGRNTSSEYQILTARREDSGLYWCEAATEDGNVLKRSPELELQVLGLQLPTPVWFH
Chain of Human FcγRIIB, recombinantly expressed extracellular domain (human) (P31994 43-217): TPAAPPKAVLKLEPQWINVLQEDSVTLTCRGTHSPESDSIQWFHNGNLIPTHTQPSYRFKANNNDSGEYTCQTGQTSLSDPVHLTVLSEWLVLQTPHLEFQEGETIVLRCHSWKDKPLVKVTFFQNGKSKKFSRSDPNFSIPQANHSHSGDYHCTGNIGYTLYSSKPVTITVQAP
Chain of Mouse FcγRIII, recombinantly expressed extracellular domain (mouse) (P08508 31-215): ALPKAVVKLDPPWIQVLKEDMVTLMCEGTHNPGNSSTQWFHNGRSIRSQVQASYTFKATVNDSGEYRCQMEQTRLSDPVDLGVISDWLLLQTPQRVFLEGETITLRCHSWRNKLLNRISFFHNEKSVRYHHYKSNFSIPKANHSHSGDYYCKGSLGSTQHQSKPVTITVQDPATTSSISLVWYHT
Chain of Human FcγRIIIA (V158), recombinantly expressed extracellular domain (human) (P08637 17-208 F176V): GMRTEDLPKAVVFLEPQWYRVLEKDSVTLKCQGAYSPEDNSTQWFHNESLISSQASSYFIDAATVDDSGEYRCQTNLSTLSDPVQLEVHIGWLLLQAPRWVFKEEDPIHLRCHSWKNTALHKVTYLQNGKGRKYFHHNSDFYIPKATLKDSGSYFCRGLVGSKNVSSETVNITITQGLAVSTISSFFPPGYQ

Take “16C4 affinity matured anti-CD19 IgG antibody”: the Kd in [1] is 0.019 µM; in assay [2], 1.47 µM; in [3], 6.36 µM; in assay [4] it was 0.329 µM; in assay [5], 0.574 µM; in assay [6] it was 14.5 µM.

With “16C4 Fc variant antibody comprising the L234F/L235Y/P331S amino acid substitutions”, the dissociation constant Kd was found to be 2.67 µM in [2]; 9.24 µM in [3]; 5.14 µM in assay [5]; 6.98 µM in assay [7]; 17.1 µM in assay [6]; 8.65 µM in [8].

Turning to “16C4 Fc variant antibody comprising the L234F/L235F/P331S amino acid substitutions”, the Kd is 2.82 µM in [2]; 10.9 µM in assay [3]; 11.1 µM in assay [4]; 4.61 µM in [5]; 6.36 µM in assay [7]; 6.81 µM in assay [6]. In assay [9], the Kd was determined as 1.53 µM.

For the origin of these results see patent US20180273621A1.
